Reference: article PMC3722578 (FEBS Open Bio, 2013)

Target: the molecule itself
Test: SEC

B1: PKD1 domain from Vibrio cholerae metalloprotease PrtV (residues Glu755-Asn839) (domain or fragment)
chain: GAMENIAPVARFELKVEGLSVMSQNTSSDSDGNIVSYLWDFGNGQTSTEAAPTWSYTKAGSYSVTLTVTDDKGDSDTHQQTIKVDTPN
B1 was tested, and the “stoichiometry N” value was 2.
